Earlier results on 3 substances are cited in article PMC5113071.

Read-outs that look alike come from different tables or passages of the source.

Series [1] deals with NRP1 (Homo sapiens) (UniProt O14786).
Series [2] concerns the target alpha-2-macroglobulin (Homo sapiens) (UniProt P01023).
The next series concerns the target VEGFR1 (Homo sapiens) (UniProt P17948).
The target of a further series is VEGFR2 (Homo sapiens) (UniProt P35968).
In series [3] the target is alpha-2-macroglobulin fast form (Homo sapiens) (UniProt P01023).
For series [4], the target named is NRP1 (Homo sapiens) (UniProt O14786). This is another data set of the same source.

Sequence of UniProt P35968 (P35968 20-1356): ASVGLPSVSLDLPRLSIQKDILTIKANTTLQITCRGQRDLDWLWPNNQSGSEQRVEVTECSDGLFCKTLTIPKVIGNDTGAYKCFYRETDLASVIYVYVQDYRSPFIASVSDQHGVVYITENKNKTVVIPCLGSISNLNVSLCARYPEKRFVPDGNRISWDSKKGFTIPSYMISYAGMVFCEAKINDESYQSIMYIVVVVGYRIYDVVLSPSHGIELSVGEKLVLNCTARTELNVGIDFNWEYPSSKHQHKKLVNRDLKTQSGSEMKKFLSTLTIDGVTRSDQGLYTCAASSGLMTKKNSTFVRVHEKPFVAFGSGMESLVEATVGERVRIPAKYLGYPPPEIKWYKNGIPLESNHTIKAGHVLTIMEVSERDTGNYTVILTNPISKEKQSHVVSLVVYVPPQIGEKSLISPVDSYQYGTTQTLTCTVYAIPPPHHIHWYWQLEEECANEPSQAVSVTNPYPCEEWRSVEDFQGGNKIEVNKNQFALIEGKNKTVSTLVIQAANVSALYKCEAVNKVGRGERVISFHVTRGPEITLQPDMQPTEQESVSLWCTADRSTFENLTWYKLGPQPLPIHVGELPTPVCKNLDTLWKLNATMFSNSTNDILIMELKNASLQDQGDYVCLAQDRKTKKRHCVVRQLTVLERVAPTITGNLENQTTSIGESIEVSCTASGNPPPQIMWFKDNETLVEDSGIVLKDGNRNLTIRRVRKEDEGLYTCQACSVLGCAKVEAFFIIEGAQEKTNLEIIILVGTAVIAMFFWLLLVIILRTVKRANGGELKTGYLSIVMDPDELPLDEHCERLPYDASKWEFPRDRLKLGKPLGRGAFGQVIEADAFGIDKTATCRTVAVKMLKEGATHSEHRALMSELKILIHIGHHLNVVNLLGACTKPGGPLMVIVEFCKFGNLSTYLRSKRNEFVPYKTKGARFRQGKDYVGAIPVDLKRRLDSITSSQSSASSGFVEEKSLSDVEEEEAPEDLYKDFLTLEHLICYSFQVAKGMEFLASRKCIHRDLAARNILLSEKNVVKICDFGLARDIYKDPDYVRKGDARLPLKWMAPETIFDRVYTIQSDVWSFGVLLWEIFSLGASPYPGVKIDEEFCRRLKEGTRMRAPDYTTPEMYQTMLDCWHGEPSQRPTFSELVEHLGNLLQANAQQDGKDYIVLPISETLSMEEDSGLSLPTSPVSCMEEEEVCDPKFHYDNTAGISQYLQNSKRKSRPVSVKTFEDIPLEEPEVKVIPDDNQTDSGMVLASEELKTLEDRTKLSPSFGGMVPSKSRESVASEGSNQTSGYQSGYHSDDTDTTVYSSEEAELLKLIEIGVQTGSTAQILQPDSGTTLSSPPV

Turning to “VEGF165a and VEGF121 (from UniProt P15692)”, in the series with NRP1 (Homo sapiens) [1], the Kd was 0.312 nM.

For “VEGF165a, VEGF165b and VEGF121 (from UniProt P15692)”, the Kd in series [2] was 4000 nM; with VEGFR1 (Homo sapiens), 0.033 nM; with VEGFR2 (Homo sapiens), 0.1 nM; in series [3], 420 nM.

Turning to sVEGFR1 (from UniProt P17948), in the series with NRP1 (Homo sapiens) [4], the Kd was 1.8 nM.

By Kd is commonly meant a measure of binding affinity in units of concentration.
